The values below come from IntAct's records for PubMed 17069809.

B1: Parabutoporin (Parabuthus schlechteri), P83312 (parent)
chain: FKLGSFLKKAWKSKLAKKLRAKGKEMLKDYAKGLLEGGSEEVPGQ

The variants in the experiment derive from B1. As to conditions: with kpca_human PRKCA.
For the variant FKLGAFLKKAWKAKLAKKLRAKGKEMLKDYAKGLLEGGSEEVPGQ [S5A;S13A], the “effect of a mutation on the interaction” value was “disrupting interaction”.
